Results: patent US20150232576A1 (published 2015)

B1: endothelial nitric oxide synthase (eNOS), purified, unphosphorylated (enzyme, bovine, UniProt P29473 1-1205, looked up)
chain: MGNLKSVGQEPGPPCGLGLGLGLGLCGKQGPASPAPEPSRAPAPATPHAPDHSPAPNSPTLTRPPEGPKFPRVKNWELGSITYDTLCAQSQQDGPCTPRCCLGSLVLPRKLQTRPSPGPPPAEQLLSQARDFINQYYSSIKRSGSQAHEERLQEVEAEVASTGTYHLRESELVFGAKQAWRNAPRCVGRIQWGKLQVFDARDCSSAQEMFTYICNHIKYATNRGNLRSAITVFPQRAPGRGDFRIWNSQLVRYAGYRQQDGSVRGDPANVEITELCIQHGWTPGNGRFDVLPLLLQAPDEAPELFVLPPELVLEVPLEHPTLEWFAALGLRWYALPAVSNMLLEIGGLEFSAAPFSGWYMSTEIGTRNLCDPHRYNILEDVAVCMDLDTRTTSSLWKDKAAVEINLAVLHSFQLAKVTIVDHHAATVSFMKHLDNEQKARGGCPADWAWIVPPISGSLTPVFHQEMVNYILSPAFRYQPDPWKGSATKGAGITRKKTFKEVANAVKISASLMGTLMAKRVKATILYASETGRAQSYAQQLGRLFRKAFDPRVLCMDEYDVVSLEHEALVLVVTSTFGNGDPPENGESFAAALMEMSGPYNSSPRPEQHKSYKIRFNSVSCSDPLVSSWRRKRKESSNTDSAGALGTLRFCVFGLGSRAYPHFCAFARAVDTRLEELGGERLLQLGQGDELCGQEEAFRGWAKAAFQASCETFCVGEEAKAAAQDIFSPKRSWKRQRYRLSTQAEGLQLLPGLIHVHRRKMFQATVLSVENLQSSKSTRATILVRLDTAGQEGLQYQPGDHIGICPPNRPGLVEALLSRVEDPPPPTESVAVEQLEKGSPGGPPPSWVRDPRLPPCTLRQALTFFLDITSPPSPRLLRLLSTLAEEPSEQQELETLSQDPRRYEEWKWFRCPTLLEVLEQFPSVALPAPLLLTQLPLLQPRYYSVSSAPNAHPGEVHLTVAVLAYRTQDGLGPLHYGVCSTWLSQLKTGDPVPCFIRGAPSFRLPPDPYVPCILVGPGTGIAPFRGFWQERLHDIESKGLQPAPMTLVFGCRCSQLDHLYRDEVQDAQERGVFGRVLTAFSREPDSPKTYVQDILRTELAAEVHRVLCLERGHMFVCGDVTMATSVLQTVQRILATEGDMELDEAGDVIGVLRDQQRYHEDIFGLTLRTQEVTSRIRTQSFSLQERHLRGAVPWAFDPPGPDTPGP
notes: Expressed and purified 'as known in the art (22-24)'; also called unphosphorylated eNOS; purified eNOS
B2: ERK phosphorylated eNOS (enzyme)
chain: B1 chain
modifications: phosphorylated in vitro by ERK2 at S602, T46 and S58 (bovine eNOS numbering); apparent stoichiometry 2-3 phosphates per monomer

Key:
calmodulin (CaM) [1] = molecular target: T1, calmodulin (CaM) (UniProt P0DP23 2-149); experiment: BLI, biotinylated CaM on streptavidin sensors, eNOS analyte, global single-state model
calmodulin (CaM) [2] = molecular target: T1, calmodulin (CaM); experiment: optical biosensing (BLI, SPR), immobilised CaM
[3] = molecular target: T2, ERK-2 (extracellular signal-regulated kinase 2) (UniProt P28482 1-360, limits assumed, biotinylated for immobilisation on streptavidin sensors); experiment: BLI, immobilised ERK-2, single component fit
T2 construct: Bought protein; also called ERK1/2
Procedure: NOSs were expressed and purified as known in the art (22-24). Heme and flavin content were estimated spectrophotometrically, and activity assayed by following NADPH consumption at 340 nm (23, 24). eNOS NO synthase activity and cytochrome c reduction were assayed as known in the art (25, 26), the concentration of CaM was reduced to 0.6 μM because of potential competition between CaM and p38. Phosphorylated His-p38 was expressed as known in the art (26) and was purified using Talon™ resin as directed by the manufacturer. ERK-2 was purchased from PROSPEC (NJ). Biolayer interferometry (27) measurements were made on a ForteBio (Menlo Park Calif.) Octet QK biosensor using streptavidin sensors. Assays were performed in 200 μL volumes at 25° C. p38 and ERK were biotinylated as known in the art (21). Biotinylated kinases were loaded onto sensors for 600 s. After establishing baseline response, kinases were exposed to analyte eNOS or nNOS at a range of concentrations. Baseline, association, and dissociation phases were all performed in NOS buffer (10 mM phosphate, pH 7.5, 100 mM NaCl, 10% glycerol, 0.005% surfactant P-20, 10 uM CaCl₂). Association and dissociation were monitored as nm shift. Nonspecific binding of analytes to sensors without ligand was negligible and so was not subtracted.
The concentration dependence was similar to that of the binding of eNOS to p38. […]

calmodulin (CaM) [4] = molecular target: T1, calmodulin (CaM); experiment: SPR (Biacore X100, CAPture chip), immobilised CaM, single-cycle kinetics, sequential model
calmodulin (CaM) [5] = molecular target: T1, calmodulin (CaM); experiment: BLI, immobilised CaM, single-state model

T2 sequence (P28482 whole entry): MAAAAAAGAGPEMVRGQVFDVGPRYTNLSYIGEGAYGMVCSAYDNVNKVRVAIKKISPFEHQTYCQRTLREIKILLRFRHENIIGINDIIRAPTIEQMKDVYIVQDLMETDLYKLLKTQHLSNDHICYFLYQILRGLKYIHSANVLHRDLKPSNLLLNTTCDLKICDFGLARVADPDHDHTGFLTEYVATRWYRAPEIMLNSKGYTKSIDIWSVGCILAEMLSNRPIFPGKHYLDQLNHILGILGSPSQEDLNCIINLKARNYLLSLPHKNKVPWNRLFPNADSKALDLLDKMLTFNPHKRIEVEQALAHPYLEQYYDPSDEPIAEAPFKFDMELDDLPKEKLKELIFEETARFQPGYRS

Binder | Kd (calmodulin (CaM) [1]) [nM] | koff (calmodulin (CaM) [1]) [s⁻¹] | kon (calmodulin (CaM) [1]) [M⁻¹ s⁻¹] | Kd (calmodulin (CaM) [2]) [nM] | fold of apparent Kd against that measured for p38 [3] [fold] | Kd (calmodulin (CaM) [4]) [nM] | fold higher koff than unphosphorylated eNOS (calmodulin (CaM) [5]) [fold]
B1 | 0.92 | 0.00011 | 120000 | ~1 | ~2 | 0.72 | –
B2 | 2.7 | 0.00012 | 120000 | ~1 | – | 0.65 | 3
